From article PMC12846656 come the findings set out here.

One data set has as its system HIV-1 Gag WT (HIV-1). As to the kind of experiment: fluorescence anisotropy salt titration. In general terms: In fluorescence polarisation assays a small probe gives low polarisation when free and higher when bound to something large.
Data set [1] deals with WT Np (SARS-CoV-2 (ancestral, WA-1/2020 isolate)). In words: fluorescence anisotropy salt titration.

On to SL1-5, for which the dissociation constant (Kd) came to 21000 µM in the data set on HIV-1 Gag WT (HIV-1) and 36 µM in data set [1].
Turning to HIV-1 WT Psi, the equilibrium dissociation constant (Kd) in data set [1] stood at 38 µM.
Consider SL5, for which the Kd is 140 µM in the data set with HIV-1 Gag WT (HIV-1) and 500 µM in data set [1].
As for HIV-1 TARpolyA, the Kd in data set [1] came out at 260 µM.
As to SL1-4, the results for the equilibrium dissociation constant (Kd) (in the data set with HIV-1 Gag WT (HIV-1); in data set [1]) were 120000 µM and 260 µM, respectively.

As a reminder, the Kd is a measure of binding affinity in units of concentration.
